Results reported in patent US20200087400A1 (EUREKA THERAPEUTICS, published 2020).
Substitutions are numbered along the chain they refer to.

B1: PSA146/HLA-A*02:01-specific scFv phage clone #10 (scFv, V domains shown)
VH: QVQLVQSGAEVKKPGSSVKVSCKASGGTFSSYAISWVRQAPGQGLEWMGWINPNSGGTNYAQKFQGRVTMTRDTSISTAYMELSRLRSDDTAVYYCARWSYYYFQQFWSLDGWGQGTLVTVSS
VL: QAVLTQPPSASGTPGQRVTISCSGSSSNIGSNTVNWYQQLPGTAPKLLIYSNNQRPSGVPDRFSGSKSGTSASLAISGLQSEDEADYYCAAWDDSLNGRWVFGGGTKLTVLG
B2: PSA146/HLA-A*02:01-specific scFv phage clone #2 (scFv, V domains shown)
VH: EVQLVQSGAEVKRPGSSVKVSCKASGGTFSSYAINWVRRAPGQGLEWMGKIIPIPGITNYAQKFQDRVTFTADTSTNIAYMELSSLRSEDTAMYYCARSYKWGSSLVDAWGQGTLVTVSS
VL: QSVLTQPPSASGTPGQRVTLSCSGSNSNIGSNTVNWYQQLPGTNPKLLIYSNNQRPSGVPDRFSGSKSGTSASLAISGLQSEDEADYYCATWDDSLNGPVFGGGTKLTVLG
B3: PSA146/HLA-A*02:01-specific scFv phage clone #3 (scFv, V domains shown)
VH: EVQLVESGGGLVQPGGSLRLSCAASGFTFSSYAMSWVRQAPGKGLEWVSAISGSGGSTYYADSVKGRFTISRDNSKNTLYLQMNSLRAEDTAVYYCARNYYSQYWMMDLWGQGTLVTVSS
VL: QSVLTQPPSVSGAPGQRVTISCTGSSSNFGAGYDVHWYQQLPGAAPKLLIYGDTNRPSGVPDRFSGSKSGTSASLAITGLQAEDEADYYCQSYDTSLSGSVFGGGTKLTVLG
B4: PSA146/HLA-A*02:01-specific scFv phage clone #9 (scFv, V domains shown)
VH: QVQLVQSGAEVKKPGASVKVSCKASGYTFTSYGISWVRQAPGQGLEWMGWISAYNGNTNYAQKLQGRVTMTTDTSTSTAYMELRSLRSDDTAVYYCARSSQYYVWDSWGQGTLVTVSS
VL: B3 VL with L4V, A44T, D53N, T54S, T95S, S100W
B5: PSA146/HLA-A*02:01-specific scFv phage clone #5 (scFv, V domains shown)
VH: QVQLVQSGAEVKKPGDSVKVSCKPSGYNFLNYGINWVRQAPGQGLEWMGWISTYTGNTNYAQKLQGRVTFTTDTSTSTAYMEMRSLRSDDTAVYYCARSSEYYTWDHWGQGTLVTVSS
VL: B3 VL with F29I, A44T, D53N, T54S, T95S, S100W
B6: PSA146/HLA-A*02:01-specific scFv phage clone #6 (scFv, V domains shown)
VH: EVQLVQSGAEVKKPGASVKVSCKASGYTFTGYYIHWVRQAPGQGLEWMGGFDPEDGETIYAQKFQDRVTMTADTSTDTAYMELSSLRSEDTAVYYCARYGFDYWGQGTLVTVSS
VL: QAVVTQEPSLTVSPGGTVTLTCASSTGAVTSGYYPNWFQLKPGQAPRALIYTTGKKHSWAPARFSGSLLGGKAALTLSGVQPEDEAEYYCLLYSGGVWVFGGGTKLTVLG

The binders below were run against T1, Bio-P19 member A2E-8 (chain 2 (heavy): C-terminal BirA substrate peptide, biotinylated there by BirA; tag letters not given, left out) (assay: phage ELISA, streptavidin plate, anti-M13-HRP).
T1 construct: also called biotinylated control peptide A2E-8/HLA-A*02:01 monomer; not shown: BirA substrate peptide (BSP) tag at the C-terminus of the heavy chain
Protocol: (§1) Individual phage clones from enriched phage display panning pools against PSA146/HLA-A*02:01 complex were incubated in the coated plates. Binding of the phage clones was detected by HRP-conjugated anti-M13 antibodies and developed using HRP substrate. The absorbance was read at 450 nm. […] Then, unique antibody clones were identified through DNA sequencing of ELISA-positive clones. […] T2 cells loaded with different peptides and β2M were first stained with purified scFv phage clones, followed by staining with a mouse anti-M13 mAb, and finally R-PE conjugated horse anti-mouse IgG from Vector Labs. Each step of the staining was performed for between 30-60 minutes on ice and the cells were washed twice between stainings. All 16 clones recognized PSA146-loaded T2 cells specifically. FIG. 3 provides examples of PSA146/HLA-A*02:01 specific phage clone binding to peptide-loaded T2 cells through FACS.
B1: no binding.
B2: no binding.
B3: no binding.
B4: no binding.
B5: no binding.
B6: no binding.

These binders were tested against T2, Bio-P19 member A2E-19 (chain 2 carries a C-terminal BirA substrate peptide (BSP), enzymatically biotinylated; the BSP letters are not given in the patent and are left out) (assay: phage ELISA, streptavidin plate, anti-M13-HRP).
T2 construct: also called biotinylated control peptide A2E-19/HLA-A*02:01 monomer
Protocol: as §1
B1: no binding.
B2: no binding.
B3: no binding.
B4: no binding.
B5: no binding.
B6: no binding.

These binders were tested against T3, Bio-P19 member A2E-7 (chain 2 (heavy): C-terminal BirA substrate peptide, biotinylated there by BirA; tag letters not given, left out) (assay: phage ELISA, streptavidin plate, anti-M13-HRP).
T3 construct: also called biotinylated control peptide A2E-7/HLA-A*02:01 monomer; not shown: BirA substrate peptide (BSP) tag at the C-terminus of the heavy chain
Protocol: as §1
B1: no binding.
B2: no binding.
B3: no binding.
B4: no binding.
B5: no binding.
B6: no binding.

Each binder was assayed against T4, Bio-P19 member A2E-1 (chain 2: C-terminal BirA substrate peptide (BSP), enzymatically biotinylated; its letters are not printed in the patent and it is left out) (assay: phage ELISA, streptavidin plate, anti-M13-HRP).
T4 construct: also called biotinylated control peptide A2E-1/HLA-A*02:01 monomer
Protocol: as §1
B1: no binding.
B2: no binding.
B3: no binding.
B4: no binding.
B5: no binding.
B6: no binding.

The binders below were run against T5, Bio-P19 member A2E-13 (chain 2: C-terminal BirA substrate peptide (BSP), enzymatically biotinylated; its letters are not printed in the patent and it is left out) (assay: phage ELISA, streptavidin plate, anti-M13-HRP).
T5 construct: also called biotinylated control peptide A2E-13/HLA-A*02:01 monomer
Protocol: as §1
B1: no binding.
B2: no binding.
B3: no binding.
B4: no binding.
B5: no binding.
B6: no binding.

What follows are binders tested against T6, Bio-P19 member A2E-16 (chain 2: C-terminal BirA substrate peptide (BSP), enzymatically biotinylated; its letters are not printed in the patent and it is left out) (assay: phage ELISA, streptavidin plate, anti-M13-HRP).
T6 construct: also called biotinylated control peptide A2E-16/HLA-A*02:01 monomer
Protocol: as §1
B1: no binding.
B2: no binding.
B3: no binding.
B4: no binding.
B5: no binding.
B6: no binding.

These binders were tested against T7, Bio-P19 member A2E-15 (chain 2: C-terminal BirA substrate peptide (BSP), enzymatically biotinylated; its letters are not printed in the patent and it is left out) (assay: phage ELISA, streptavidin plate, anti-M13-HRP).
T7 construct: also called biotinylated control peptide A2E-15/HLA-A*02:01 monomer
Protocol: as §1
B1: no binding.
B2: no binding.
B3: no binding.
B4: no binding.
B5: no binding.
B6: no binding.

Each binder was assayed against T8, Bio-P19 member A2E-17 (chain 2: C-terminal BirA substrate peptide (BSP), enzymatically biotinylated; its letters are not printed in the patent and it is left out) (assay: phage ELISA, streptavidin plate, anti-M13-HRP).
T8 construct: also called biotinylated control peptide A2E-17/HLA-A*02:01 monomer
Protocol: as §1
B1: no binding.
B2: no binding.
B3: no binding.
B4: no binding.
B5: no binding.
B6: no binding.

The binders below were run against T9, Bio-P19 member A2E-21 (chain 2 carries a C-terminal BirA substrate peptide (BSP), enzymatically biotinylated; the BSP letters are not given in the patent and are left out) (assay: phage ELISA, streptavidin plate, anti-M13-HRP).
T9 construct: also called biotinylated control peptide A2E-21/HLA-A*02:01 monomer
Protocol: as §1
B1: no binding.
B2: no binding.
B3: no binding.
B4: no binding.
B5: no binding.
B6: no binding.

What follows are binders tested against T10, Bio-P19 member A2E-6 (chain 2 carries a C-terminal BirA substrate peptide (BSP), enzymatically biotinylated; the BSP letters are not given in the patent and are left out) (assay: phage ELISA, streptavidin plate, anti-M13-HRP).
T10 construct: also called biotinylated control peptide A2E-6/HLA-A*02:01 monomer
Protocol: as §1
B1: no binding.
B2: no binding.
B3: no binding.
B4: no binding.
B5: no binding.
B6: no binding.

What follows are binders tested against T11, Bio-P19 member A2E-4 (chain 2 carries a C-terminal BirA substrate peptide (BSP), enzymatically biotinylated; the BSP letters are not given in the patent and are left out) (assay: phage ELISA, streptavidin plate, anti-M13-HRP).
T11 construct: also called biotinylated control peptide A2E-4/HLA-A*02:01 monomer
Protocol: as §1
B1: no binding.
B2: no binding.
B3: no binding.
B4: no binding.
B5: no binding.
B6: no binding.

Each binder was assayed against T12, Bio-P19 member A2E-14 (chain 2: C-terminal BirA substrate peptide (BSP), enzymatically biotinylated; its letters are not printed in the patent and it is left out) (assay: phage ELISA, streptavidin plate, anti-M13-HRP).
T12 construct: also called biotinylated control peptide A2E-14/HLA-A*02:01 monomer
Protocol: as §1
B1: no binding.
B2: no binding.
B3: no binding.
B4: no binding.
B5: no binding.
B6: no binding.

What follows are binders tested against T13, Bio-P19 member A2E-10 (chain 2: C-terminal BirA substrate peptide (BSP), enzymatically biotinylated; its letters are not printed in the patent and it is left out) (assay: phage ELISA, streptavidin plate, anti-M13-HRP).
T13 construct: also called biotinylated control peptide A2E-10/HLA-A*02:01 monomer
Protocol: as §1
B1: no binding.
B2: no binding.
B3: no binding.
B4: no binding.
B5: no binding.
B6: no binding.

Each binder was assayed against T14, Bio-P19 member A2E-11 (chain 2: C-terminal BirA substrate peptide (BSP), enzymatically biotinylated; its letters are not printed in the patent and it is left out) (assay: phage ELISA, streptavidin plate, anti-M13-HRP).
T14 construct: also called biotinylated control peptide A2E-11/HLA-A*02:01 monomer
Protocol: as §1
B1: no binding.
B2: no binding.
B3: no binding.
B4: no binding.
B5: no binding.
B6: no binding.

What follows are binders tested against T15, Bio-P19 member A2E-9 (chain 2 (heavy): C-terminal BirA substrate peptide, biotinylated there by BirA; tag letters not given, left out) (assay: phage ELISA, streptavidin plate, anti-M13-HRP).
T15 construct: also called biotinylated control peptide A2E-9/HLA-A*02:01 monomer; not shown: BirA substrate peptide (BSP) tag at the C-terminus of the heavy chain
Protocol: as §1
B1: no binding.
B2: no binding.
B3: no binding.
B4: no binding.
B5: no binding.
B6: no binding.

Each binder was assayed against T16, Bio-P19 member A2E-5 (chain 2 carries a C-terminal BirA substrate peptide (BSP), enzymatically biotinylated; the BSP letters are not given in the patent and are left out) (assay: phage ELISA, streptavidin plate, anti-M13-HRP).
T16 construct: also called biotinylated control peptide A2E-5/HLA-A*02:01 monomer
Protocol: as §1
B1: no binding.
B2: no binding.
B3: no binding.
B4: no binding.
B5: no binding.
B6: no binding.

These binders were tested against T17, HLA-A*02:01 on T2 cells with no peptide loaded (human) (assay: flow cytometry, phage on T2 cells, anti-M13 + R-PE anti-mouse IgG).
T17 construct: TAP-deficient T2 cells, no peptide loaded from outside; also called T2 cells without peptide loading
Protocol: as §1
B1: no binding.
B2: no binding.
B3: no binding.
B4: no binding.
B5: no binding.
B6: no binding.
